Target: T1, His-PIPKIγ661 C-terminus, wild-type (439-661)
T1 chain: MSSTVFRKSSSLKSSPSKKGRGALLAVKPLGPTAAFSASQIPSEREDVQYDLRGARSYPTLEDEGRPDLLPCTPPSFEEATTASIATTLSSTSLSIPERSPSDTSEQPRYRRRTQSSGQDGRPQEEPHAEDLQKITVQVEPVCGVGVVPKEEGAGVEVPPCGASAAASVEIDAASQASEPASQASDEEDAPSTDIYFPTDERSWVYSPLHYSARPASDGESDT

B1: focal adhesion-associated kinase (FAK) (protein)
chain: MAAAYLDPNLNHTPSSSTKTHLGTGMERSPGAMERVLKVFHHFESSSEPTTWASIIRHGDATDVRGIIQKIVDSHKVKHVACYGFRLSHLRSEEVHWLHVDMGVSSVREKYELAHPPEEWKYELRIRYLPKGFLNQFTEDKPTLNFFYQQVKSDYMQEIADQVDQEIALKLGCLEIRRSYWEMRGNALEKKSNYEVLEKDVGLKRFFPKSLLDSVKAKTLRKLIQQTFRQFANLNREESILKFFEILSPVYRFDKECFKCALGSSWIISVELAIGPEEGISYLTDKGCNPTHLADFNQVQTIQYSNSEDKDRKGMLQLKIAGAPEPLTVTAPSLTIAENMADLIDGYCRLVNGATQSFIIRPQKEGERALPSIPKLANSEKQGMRTHAVSVSHCQHKVKKARRFLPLVFCSLEPPPTDEISGDETDDYAEIIDEEDTYTMPSKSYGIDEARDYEIQRERIELGRCIGEGQFGDVHQGVYLSPENPALAVAIKTCKNCTSDSVREKFLQEALTMRQFDHPHIVKLIGVITENPVWIIMELCTLGELRSFLQVRKYSLDLASLILYAYQLSTALAYLESKRFVHRDIAARNVLVSSNDCVKLGDFGLSRYMEDSTYYKASKGKLPIKWMAPESINFRRFTSASDVWMFGVCMWEILMHGVKPFQGVKNNDVIGRIENGERLPMPPNCPPTLYSLMTKCWAYDPSRRPRFTELKAQLSTILEEEKVQQEERMRMESRRQATVSWDSGGSDEAPPKPSRPGYPSPRSSEGFYPSPQHMVQTNHYQVSGYPGSHGIPAMAGSIYQGQASLLDQTELWNHRPQEMSMWQPSVEDSAALDLRGMGQVLPPHLMEERLIRQQQEMEEDQRWLEKEERFLKPDVRLSRGSIDREDGSFQGPTGNQHIYQPVGKPDPAAPPKKPPRPGAPGHLSNLSSISSPADSYNEGVKLQPQEISPPPTANLDRSNDKVYENVTGLVKAVIEMSSKIQPAPPEEYVPMVKEVGLALRTLLATVDETIPALPASTHREIEMAQKLLNSDLGELISKMKLAQQYVMTSLQQEYKKQMLTAAHALAVDAKNLLDVIDQARLKMLGQTRPH
- in vitro kinase assay, phosphorylation of the recombinant substrate: while FAK does not

From patent publication US20040265295
